Data on one molecule can be found in US20080227696A1 (BIOSURFACE ENGINEERING TECHNOLOGIES, published 2008).

In the test the target is T1, Soluble PDGF receptor, recombinant chimera of human PDGF-R-alpha (R&D Systems) (human, UniProt P16234 24-524).
T1 construct: Bought from R&D Systems; immobilized on a CM5 chip by EDC/NHS; not shown: called a recombinant chimera
As to the kind of experiment: SPR, BIAcore 2000, receptor immobilized on CM5 chip, peptide as analyte, 1:1 global fit. Here is the method: Surface Plasmon Resonance (SPR) Analysis. Real-time biomolecular interactions were analyzed with a BIAcore 2000 system (Biacore Inc., Piscataway, N.J.). Soluble PDGF receptor, recombinant chimera of human PDGF-R-alpha and PSGF-R-beta (R &D Systems, Minneapolis, Minn.), was immobilized on research grade CM5 chips (Biacore Inc., Piscataway, N.J.). Following activation with EDC/NHS, the receptors were immobilized on activated CM5 chips. To obtain kinetic data, different concentrations of analytes in HBS-EP buffer were injected over the sensor chip at a flow rate of 50 μl/min. Peptide binding was measured in resonance units (RU). At the end of each sample injection (120 s) buffer was passed over the sensor surface to monitor the dissociation phase. Reference responses from blank flow cells were subtracted from receptor-containing flow cells for each analyte injection and the kinetic parameters for each interaction were determined by globally fitting the experimental data to a 1:1 interaction with BIAEVALUATION software (Biacore Inc., Piscataway, N.J.). The association rate constant and the dissociation rate constant (kₐ and kd, respectively), and the equilibrium dissociation constant (KD) are presented in the Table 4 for the receptors and PBA2-1.
A general note: In SPR one partner is held on a chip, and binding of the other changes the refractive index at the surface.

Where no end group is shown, it is not given here. [ ]: non-standard residue; d: D form. Ahx = NCCCCCC(=O)O

T1 sequence (P16234 24-524, change not shown): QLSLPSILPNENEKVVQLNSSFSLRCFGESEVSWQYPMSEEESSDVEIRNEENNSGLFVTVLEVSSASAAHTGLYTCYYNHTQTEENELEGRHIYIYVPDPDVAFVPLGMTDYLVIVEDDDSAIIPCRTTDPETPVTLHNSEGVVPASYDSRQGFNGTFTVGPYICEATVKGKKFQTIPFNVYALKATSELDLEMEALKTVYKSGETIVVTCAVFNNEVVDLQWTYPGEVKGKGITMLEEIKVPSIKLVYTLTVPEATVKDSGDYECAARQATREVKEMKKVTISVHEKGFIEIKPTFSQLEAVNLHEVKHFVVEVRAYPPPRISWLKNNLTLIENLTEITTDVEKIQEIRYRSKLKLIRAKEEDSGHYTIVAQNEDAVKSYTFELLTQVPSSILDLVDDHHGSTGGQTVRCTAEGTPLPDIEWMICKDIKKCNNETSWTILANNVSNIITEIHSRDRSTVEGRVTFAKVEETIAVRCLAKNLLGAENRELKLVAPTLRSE

B1: PBA2-1 (peptide)
chain 1: VRKIEIVRKKK[Ahx][Ahx][Ahx]RKRKLERIAR-NH2
chain 2: VRKIEIVRKK
modifications: also: chain 2 bound through its C-terminus to the side chain of Lys11 of chain 1 (branched homodimer), bond at chain A 11 to a chain's C-terminus
notes: also called mimetic of PDGF; PDGF analog PBA2-1
Take B1: the Kd (commonly a measure of binding affinity in units of concentration) turned out to be 23.3 nM.
